The record followed here is US20020025569A1 (GPC BIOTECH, published 2002).

Data set [1] has as its system T1, GST-fusion protein containing amino acids 696-902 of human cdc4.
T1 sequence: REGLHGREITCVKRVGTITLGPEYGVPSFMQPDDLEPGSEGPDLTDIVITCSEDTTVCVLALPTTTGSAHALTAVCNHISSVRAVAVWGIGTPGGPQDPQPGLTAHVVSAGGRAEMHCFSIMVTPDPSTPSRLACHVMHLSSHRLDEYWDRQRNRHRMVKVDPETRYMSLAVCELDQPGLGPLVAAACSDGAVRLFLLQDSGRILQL

Data set [2] deals with T2, human p19 skp1, expressed as a LexA fusion protein from vector pBTM116 (human, UniProt P63208 1-163, limits assumed).
T2 construct: Bait of the yeast two-hybrid screen in S. cerevisiae L40; also called human skp1
Description: yeast two-hybrid (LexA-skp1 bait, mouse cDNA-VP16 library). The protocol:
A full length cDNA encoding a mouse homolog of yeast cdc4 protein was cloned through its ability to specifically interact with human p19 skp1 in a yeast two hybrid system. Briefly, human skp1 was cloned into the vector pBTM116 for expression as a LexA fusion protein. This construct was transformed into S. Cerevisiae strain L40 (MATa his3 200 trp1-900 leu2-3,112 ade LYS2::lexAop)₄-HIS3 URA3::(lexAop)₈-lacZ GAL4). Skp1 interacting clones were selected in the presence of 1 mM 3-aminotriazole after transformation of a mouse cDNA-VP16 fusion library. Specificity of the interacting clones was assessed with the D. Melanogaster daughterless gene.

T2 sequence (P63208 whole entry, the tested form may be a part): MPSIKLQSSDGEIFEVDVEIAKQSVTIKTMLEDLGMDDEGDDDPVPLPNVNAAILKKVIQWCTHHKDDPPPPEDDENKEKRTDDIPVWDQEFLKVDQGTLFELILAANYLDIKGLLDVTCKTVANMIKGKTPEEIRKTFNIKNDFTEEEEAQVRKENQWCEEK

Take UBC2: the “in vitro ubiquitination reaction (E1, E2, biotinylated ubiquitin; streptavidin-HRP after non-reducing SDS-PAGE)” value in data set [1] was “though to a lesser extent, UBC2”.

In the case of UBC4, the “in vitro ubiquitination reaction (E1, E2, biotinylated ubiquitin; streptavidin-HRP after non-reducing SDS-PAGE)” value in data set [1] is recorded as “cdc4 polypeptide was found to be ubiquitinated by UBC4”.

B1: mouse cdc4 (clone from a mouse cDNA-VP16 fusion library; 486 base pair fragment) (other, not shown: large carriers)
chain: TFTHEAPNQRRRLILCSAATDGSLAFWDLTTAMDKGSTTLELPAHPGLPYQMGTPSMTVQAHSCGVNSLHTLPTPEGHHLVASGSEDGSLHVFTLAVKMPEPEEADGEAELVPQLCVLEEYSVPCAHAAHVTGVKILSPKLMVSASIDQRLTFWRLGQGEPP
notes: VP16 is placed first from knowledge of such libraries; also called mu-cdc4; mcdc4
Consider B1, for which, in data set [2], the binding result is “binds”.
